Drawing on patent US20090158455A1, “COMPOSITIONS AND METHODS FOR MODULATING LYSINE PRODUCTION” (priority 2005, published 2009), this text covers Km for 4 proteins.

Where “and” joins values, the source holds several entries; their conditions need not be identical. Identical values can stand only once.

Substrate in series [1]: N[C@@H](CCC[C@H](N)C(=O)O)C(=O)O
Briefly: purified protein, by the assay type. To be noted: other: reverse assay.

Substrate in series [2]: O=C(O)CCC(=O)C(=O)O
Briefly: purified protein, by the assay type. To be noted: other: reverse assay.

Substrate in series [3]: N[C@@H](CCC(=O)O)C(=O)O
Briefly: Quantitative forward and reverse assays of purified LL-DAP transaminases (Example III). The format is biochemical, Syntrophobacter fumaroxidans MPOB. To be noted: other: forward assay.

Substrate in series [4]: O=C(O)C1=N[C@H](C(=O)O)CCC1
Described as above. The series is classed as biochemical, Syntrophobacter fumaroxidans MPOB. To be noted: other: forward assay.

Substrate in series [5]: N[C@@H](CCC(=O)O)C(=O)O
Described as above. The series is classed as biochemical, Bacteroides fragilis NCTC9343. To be noted: other: forward assay. The text has this:
(§1) All orfs were processed identically for expression in E. coli. The orfs were amplified by PCR using the indicated primers. The resulting DNA fragment was digested with BamHI and SalI and cloned into pET30b. The pET30b clone was sequenced. This plasmid was transformed into E. coli BL21-CodonPlus®-RIPL for expression and purification of the recombinant protein. For functional complementation experiments, the expression cassette was subcloned from pET30b into pBAD33 (Guzman et al., 1995) using XbaI and SalI. Using these enzymes the expression cassette included the entire orf, the His-Tag coding sequence and the ribosome binding site from pET30b. pBAD33 provided an arabinose-regulated promoter.
(§2) For protein expression the E. coli strains were grown on LB at 37° C. to an OD600 nm of 0.5 and protein expression was then induced with 1 mM IPTG for 4 hr at 25° C. Cells were lysed by sonication in a solution of 50 mM sodium phosphate and 300 mM NaCl (pH 8.0). Metabolites in the extract were removed by buffer exchange using an Amicon Ultra 30,000 MWCO ultrafilter and sodium phosphate/NaCl buffer, and the concentrated soluble protein sample was used for measurement of enzyme activity as an initial assessment of enzyme function. When the recombinant protein was to be purified a larger cell culture was grown and lysed as described above, but the buffer exchange step was not carried out. […] The pure protein was then concentrated in an Amicon Ultra 30,000 MWCO ultrafilter, replacing the elution buffer with 100 mM HepesKOH, pH 7.6.
(§3) Enzyme assays were performed as described above in Examples I and II.
(§4) The catalytic properties of sll0480, BF2643, Dhaf—3980, MTH52, and SfumDRAFT0821 were studied in greater detail using purified enzymes to determine their kinetic constants using quantitative forward and reverse assays.

Substrate in series [6]: N[C@@H](CCC[C@H](N)C(=O)O)C(=O)O
The description is as above. The format is biochemical, Bacteroides fragilis NCTC9343. To be noted: other: reverse assay.
From the text: as §1, §2, §3, §4

Substrate in series [7]: O=C(O)C1=N[C@H](C(=O)O)CCC1
The description is as above. The format is biochemical, Bacteroides fragilis NCTC9343. To be noted: other: forward assay.
From the text: as §1, §2, §3, §4

Substrate in series [8]: N[C@@H](CCC(=O)O)C(=O)O
Briefly: purified protein, by the assay type. To be noted: other: forward assay.

Substrate in series [9]: O=C(O)C1=N[C@H](C(=O)O)CCC1
Briefly: purified protein, by the assay type. To be noted: other: forward assay.

[10] abbreviates: coupled with 2-OG dehydrogenase, pH 7.5, apparent Km, pH 7.5, 30.0 °C.
The mark [11] stands for this setting: Ddh-coupled, pH 7.5, 30° C., apparent Km, pH 7.5, 30.0 °C.

B1: Syntrophobacter fumaroxidans LL-DAP transaminase SfumDRAFT_0821 (Syntrophobacter fumaroxidans MPOB) (protein)
chain: MAFVKAERLKLLPPYLFQEIDRLKAELTAKGVDVINLGVGDPDLPTPDHIIARLKTAAEDPSTHQYPSYSGMNDFKVSVAGWYKRRFGVELDPLSEVLTLIGSKEGLAHFPLAVINPGDLALVPTPAYPVYHVATMFAGGESYFMPLVRENGFLPDLDSIPADVARRAKVMFINYPNNPTGATAERDFFEKVIAFAREYDVIVCHDAAYTEMAFGGYRPLSFLELPGAGEVGVEFHSLSKTYNMTGWRLGFAVGNADILAGLGQVKSNIDSGAFNAVQWAGITALEGDQGCVVEMQRIYKERLDILIEGLKRIGLHPEVPRATFYVWCPTPPGYSSKDFSSLLLREAGIVATPGSGFGAPGEGYIRMALTVDKERVREAVERMRKLSF
B1: the Km in series [1] worked out at 29 µM; in series [2] it was 700 µM; in [3], 700 µM; in [4], 12 µM.

B2: Bacteroides fragilis LL-DAP transaminase Bf2643 (Bacteroides fragilis YCH46) (protein)
chain: MALVNEHFLKLPGSYLFSDIAKKVNTFKITHPKRDIIRLGIGDVTRPLPKACIEAMHKAVEEMTSAETFRGYGPEQGYDFLIEAIIKNDYAPRGIHLSPTEVFVNDGAKSDTGNIGDILRHDNSVGVTDPIYPVYIDSNVMCGRAGVLDTESGKWSNVTYMPCTAENHFIPAIPEKRIDIVYLCYPNNPTGTTLTKAELKKWVDYALANDTLILFDAAYEAYIREPDIPHSIYEIKGAKKCAIEFRSFSKTAGFTGVRCGYTVVPKELTAATLEGERIPLNRLWNRRQCTKFNGTSYITQRAAEAIYTPEGKEQIQETINYYMTNARIMKEGLESTGLKVYGGVNAPYLWVKTPNGTSSWRFFDQMLYEANVVGTPGVGFGPSGEGYIRLTAFGERDDCIEAMRRIKNRL
For the protein B2, the Km came to 1200 µM in series [2], 1300 µM in [5], 10 µM in series [6] and 96 µM in series [7].

B3: Arabidopsis thaliana LL-DAP-AT (At4g33680), wild type, recombinant (lacks first 39 amino acids, hexa-His and S-TAG), SEQ ID NO: 7 (Arabidopsis thaliana) (protein)
chain: VNTCKCVATPQEKIEYKTKVSRNSNMSKLQAGYLFPEIARRRSAHLLKYPDAQVISLGIGDTTEPIPEVITSAMAKKAHELSTIEGYSGYGAEQGAKPLRAAIAKTFYGGLGIGDDDVFVSDGAKCDISRLQVMFGSNVTIAVQDPSYPAYVDSSVIMGQTGQFNTDVQKYGNIEYMRCTPENGFFPDLSTVGRTDIIFFCSPNNPTGAAATREQLTQLVEFAKKNGSIIVYDSAYAMYMSDDNPRSIFEIPGAEEVAMETASFSKYAGFTGVRLGWTVIPKKLLYSDGFPVAKDFNRIICTCFNGASNISQAGALACLTPEGLEAMHKVIGFYKENTNIIIDTFTSLGYDVYGGKNAPYVWVHFPNQSSWDVFAEILEKTHVVTTPGSGFGPGGEGFVRVSAFGHRENILEACRRFKQLYK
As for B3, the Km in series [8] (coupled with 2-OG dehydrogenase, pH 7.5, apparent Km, pH 7.5) is 2000 µM; in series [8] (setting [10]), 1900 ± 100 µM; in series [1] (setting [11]), 67 ± 2 µM; in series [9] (setting [10]), 38 ± 4 µM; in series [2] (setting [11]) it was 8300 µM and 8700 ± 300 µM.

B4: Arabidopsis thaliana LL-DAP transaminase At4g33680, SEQ ID NO: 7 (Arabidopsis thaliana) (protein)
chain: VNTCKCVATPQEKIEYKTKVSRNSNMSKLQAGYLFPEIARRRSAHLLKYPDAQVISLGIGDTTEPIPEVITSAMAKKAHELSTIEGYSGYGAEQGAKPLRAAIAKTFYGGLGIGDDDVFVSDGAKCDISRLQVMFGSNVTIAVQDPSYPAYVDSSVIMGQTGQFNTDVQKYGNIEYMRCTPENGFFPDLSTVGRTDIIFFCSPNNPTGAAATREQLTQLVEFAKKNGSIIVYDSAYAMYMSDDNPRSIFEIPGAEEVAMETASFSKYAGFTGVRLGWTVIPKKLLYSDGFPVAKDFNRIICTCFNGASNISQAGALACLTPEGLEAMHKVIGFYKENTNIIIDTFTSLGYDVYGGKNAPYVWVHFPNQSSWDVFAEILEKTHVVTTPGSGFGPGGEGFVRVSAFGHRENILEACRRFKQLYK
As to B4, the Km is 1400 µM in series [8], 62 µM in series [1], 25 µM in series [9] and 1400 µM in series [2].
